We go through two molecules from article PMC5988349 (Nature, 2018).

Data set [1] concerns the molecule itself. As to the kind of experiment: cryo-EM structure.
For data set [2], the target named is β-actin subunit of pig dynactin (pig (endogenous in pig brain), UniProt Q6QAQ1 1-375). Briefly: cryo-EM structure.

B1: dynein heavy chain (HC) residues 1-1455 (domain or fragment)
chain: MSEPGGGGGEDGSAGLEVSAVQNVADVSVLQKHLRKLVPLLLEDGGEAPAALEAALEEKSALEQMRKFLSDPQVHTVLVERSTLKEDVGDEGEEEKEFISYNINIDIHYGVKSNSLAFIKRTPVIDADKPVSSQLRVLTLSEDSPYETLHSFISNAVAPFFKSYIRESGKADRDGDKMAPSVEKKIAELEMGLLHLQQNIEIPEISLPIHPMITNVAKQCYERGEKPKVTDFGDKVEDPTFLNQLQSGVNRWIREIQKVTKLDRDPASGTALQEISFWLNLERALYRIQEKRESPEVLLTLDILKHGKRFHATVSFDTDTGLKQALETVNDYNPLMKDFPLNDLLSATELDKIRQALVAIFTHLRKIRNTKYPIQRALRLVEAISRDLSSQLLKVLGTRKLMHVAYEEFEKVMVACFEVFQTWDDEYEKLQVLLRDIVKRKREENLKMVWRINPAHRKLQARLDQMRKFRRQHEQLRAVIVRVLRPQVTAVAQQNQGEVPEPQDMKVAEVLFDAADANAIEEVNLAYENVKEVDGLDVSKEGTEAWEAAMKRYDERIDRVETRITARLRDQLGTAKNANEMFRIFSRFNALFVRPHIRGAIREYQTQLIQRVKDDIESLHDKFKVQYPQSQACKMSHVRDLPPVSGSIIWAKQIDRQLTAYMKRVEDVLGKGWENHVEGQKLKQDGDSFRMKLNTQEIFDDWARKVQQRNLGVSGRIFTIESTRVRGRTGNVLKLKVNFLPEIITLSKEVRNLKWLGFRVPLAIVNKAHQANQLYPFAISLIESVRTYERTCEKVEERNTISLLVAGLKKEVQALIAEGIALVWESYKLDPYVQRLAETVFNFQEKVDDLLIIEEKIDLEVRSLETCMYDHKTFSEILNRVQKAVDDLNLHSYSNLPIWVNKLDMEIERILGVRLQAGLRAWTQVLLGQAEDKAEVDMDTDAPQVSHKPGGEPKIKNVVHELRITNQVIYLNPPIEECRYKLYQEMFAWKMVVLSLPRIQSQRYQVGVHYELTEEEKFYRNALTRMPDGPVALEESYSAVMGIVSEVEQYVKVWLQYQCLWDMQAENIYNRLGEDLNKWQALLVQIRKARGTFDNAETKKEFGPVVIDYGKVQSKVNLKYDSWHKEVLSKFGQMLGSNMTEFHSQISKSRQELEQHSVDTASTSDAVTFITYVQSLKRKIKQFEKQVELYRNGQRLLEKQRFQFPPSWLYIDNIEGEWGAFNDIMRRKDSAIQQQVANLQMKIVQEDRAVESRTTDLLTDWEKTKPVTGNLRPEEALQALTIYEGKFGRLKDDREKCAKAKEALELTDTGLLSGSEERVQVALEELQDLKGVWSELSKVWEQIDQMKEQPWVSVQPRKLRQNLDALLNQLKSFPARLRQYASYEFVQRLLKGYMKINMLVIELKSEALKDRHWKQLMKRLHVNWVVSELTLGQIWDVDLQKNEAIVKDVLLVAQG
As to B1, the binding result in data set [1] and in data set [2] was “binds” throughout.

B2: BICDR1 (BICD related-1), as used for the cryo-EM of TDR (natural protein)
chain: MSAFCLGLAGRASAPAEPDSACCMELPAGAGDAVRSPATAAALVSFPGGPGELELALEEELALLAAGERSSEPGEHPQAEPESPVEGHGPPLPPPPTQDPELLSVIRQKEKDLVLAARLGKALLERNQDMSRQYEQMHKELTDKLEHLEQEKHELRRRFENREGEWEGRVSELETDVKQLQDELERQQLHLREADREKTRAVQELSEQNQRLLDQLSRASEVERQLSMQVHALKEDFREKNSSTNQHIIRLESLQAEIKMLSDRKRELEHRLSATLEENDLLQGTVEELQDRVLILERQGHDKDLQLHQSQLELQEVRLSYRQLQGKVEELTEERSLQSSAATSTSLLSEIEQSMEAEELEQEREQLRLQLWEAYCQVRYLCSHLRGNDSADSAVSTDSSMDESSETSSAKDVPAGSLRTALNDLKRLIQSIVDGVEPTVTLLSVEMTALKEERDRLRVTSEDKEPKEQLQKAIRDRDEAIAKKNAVELELAKCKMDMMSLNSQLLDAIQQKLNLSQQLEAWQDDMHRVIDRQLMDTHLKEQSRPAAAAFPRGHGVGRGQEPSTADGKRLFSFFRKI
For the molecule B2, the binding result in data set [1] is listed as “binds”.
